In a protein production outcome set (Wang et al. 2014):

Assay: label from the status in PepcDB records

| Sequence | protein production |
| --- | --- |
| MDEGMQIVGAVSGLSTPFNQNVSLECYNGILSMLLNGAPLADILHALVLKIEDQRLGTHASVLLLSEDGKRVLTGAAPHLPDSYNQVIHGVEIGPEVGSCGTAAYTGQRVIVEDIEHHPYWALYKSFALVHGLRACWSEPIKDTQGKVLGTFAMYYKEIKSPTVADLTLIAEAARLASLAIERSRSLEFQRLAVKIFDRLPLALVITNASHSVLYANDAFKLMVCLQPDDILAFNPEQFFSPSEPHEIASLFNHLSEGKMWQGELVGLRNNGETFYLDLTVTVFRESHSADLGFAWLFSDVSERKKAAQLIKYQANNDSLTGLANRNALFRQIQELINADSLTPGFSFMLMDLDNFKQVNDTYGHDKGDVLLVQMVEQVKICLDPQAVFARLGGDEFAILLPGVVTQRELSQLADKINKQVYRRYELSHDKGVYSSVSIGIARFPEDALDLEQLLNCADQAMYISKANGRNRYHFFTEQMQQNAERIANLHTLLKQALEQNAFELYFQPIVDATTGLIVRAEVLLRWQHEGQFISPDEFIPIAENSGLIVSIGRCVRQAVMQTIVEMQALGWPMSLAINVSTFEFWSHELQDEFCDSFTDIIEGLGVEDFPYELITLEITESLLMKKHAHLIQVLNELRARGIKISLDDFGTGYSSLSYLANFPIDQIKIDKSFIDRLAEGERHLALIEAIVRLSHALNLRVTAEGVETQEQLQVMMDNHIQEIQGYLFYKPIPKAVFFELLAKQAVISPHSLEHHHHHH | failed |
| MNPLKAGDIAPKFSLPDQDGEQVNLTDFQGQRVLVYFYPKAMTPGCTVQACGLRDNMDELKKAGVDVLGISTDKPEKLSRFAEKELLNFTLLSDEDHQVCEQFGVWGEKSFMGKTYDGIHRISFLIDADGKIEHVFDDFKTSNHHDVVLNWLKEHA | not failed |
| MIPVFNITSNRGRLLQQISVGDIWGVGRQWANKLISRGIHTAYDLAMTNPHLLKKCFNAVLMRTAMELQGIACGGLEVLEHHHHHH | failed |
| MRLEKQLIKKMYYETFLMENETKPTLDVLGQAYVNEEKNEISDGSYIRFAQGEFYYRHQDFEAAIFKWEKVSNELAPWAQKNIADAYFELNQLSFAENIYTSITTDNKILMTEIRLQLLSLYIEQNNFDSAFGVIKEAVSLNPDYPNVTKIARSFYEEQQDFDSAVELAVNELIRIESYPWFEVLKGYIDKGFTKHISPDYFYDALATLNNVDQVQFTQMVSSLWNSYKNEKNYLLWLNTINEFFLHIEIHSSDIWNKVSALYEETYFALIQGQYTLRQLNDIIPNLLANWLKVVNPSYAVFPSAAVLAWDEIFPSKIDSANIEHAENLLSHSINHVNGLEYSLHLFESITQWAQKQNIEIGHRFKWLVDELADLRTNRILVTGTSGNGKTTFINSILGENILEKSISNVVVLKNDAHIEINAITDSAITTTEDVSDYHNMMSQHHQTYRDRACVEFKLPCRFLNENKLTFVVTPGFNRNNDTRDEIFEYLNSVDELLFVLNADSPFTDKERDILLSIQEHTPNLQIHFLLNKIDNIYSEAEVKRVLHDTATRINTYFPYARIFPYSSLYTSSQQLNDLTEFIHFNFNHKNIDAERTEKLLFFIRKTITYLLDKRVEKENNLVDAINWNEDMLVKLNGSINNLTTFEREKIHFITQSYRSMKTEITNDLTENIPKILKSCSNLISEESDFGHMDTELNKAMNERVHKYLEQTVLPNLALSMQNWIATSNNELLQSQTYLEELSEGLNSLFGENRIQLECDFKVLDDWRRDTDRMTTRIQMDEVNILRRFTPAQFLLKSAGKLFGVLPKNKSMLYNKYKQYVENEDYTEVTASIMKKFFLQFELFENTQERDINIFFRNPFNSLKQAVENTHLEIQEKQEILHKMKSNPEIYHDSIMLFELRLRQCEVILNIGNDNTYTDVALETSVE | failed |
| MKPIRYTIAPAAPEAHLFTVTVTVDAPDPQGQRFSLPAWIPGSYMIREFARNIVRIEAMCGERAVRLAKLDKHTWQAAPCSGPLTVSYDVYAWDLSVRAAHLDPTHGFFNGTSVFLRVEGGEQVRCLVDIQPPAGDAYRGWRVATALREASGRVQGRVGAKRYGFGWYEAADYDELIDHPVEMGTFALVSFEACGAQHDAVFTGRVPNLDLERIARDFKRICEAQIRLFEPHTAAAPFLDSNRRYVFMTMVTTDGYGGLEHRASTALICARNDLPVTGRDETTEGYRTFLGLVSHEYFHTWNVKRIKPAVFVPYALDREVHTPLLWLFEGFTSYYDDLMLVRSGLISEAQYLEMLAKTWNGVLRGSGRLKQSVAESSFDAWTKYYRQDENAPNAIVSYYTKGSLVALALDLTIRTQTGGEHSLDDVMRALWAAGGRDFYAPGHAQRGVTEAELIALMEETTGLRLRTLVRQLAEGRDDPPLPALFKAIGVTATRKPAEAALGLGAKVGAENGFVKLLQVFDGGPAQRAGLSAGDLVVAVDGLRVLSGQLDKSLARHRAGDTVPVHVFRRDELMQLDVTLSADATPQFALALSAEPSPLRSAWLGKRAAARGARPAKSRSAA | failed |
